From patent US6570069B1, “Nucleic acids encoding plant inhibitors of apoptosis and transgenic cells and plants expressing them” (priority 2000, dated 2003)
Entries after “also recorded” stand apart in the source; their conditions may differ.

Tests used:
[1] = system: recombinant active caspase-9; assay: Enzyme inhibition assay with recombinant active caspase-9 and Ac-LEHD-AFC; type: biochemical, mammalian; details: Ac-LEHD-AFC substrate
Protocol: (§1) pGEX4T-1-SfIAP and pGEX4T-1 -CpIAP plasmids were introduced into E. coli strain BL21 (DE3) containing the plasmid pT-Trx. GST fusion proteins were obtained by induction with 0.05 mM IPTG at 25° C. for 8 hours, then purified using glutathione-Sepharose, essentially as described (Deveraux, Q., Welsh, K. & Reed, J. Methods of Enzymology in press). Caspases-3, and -7, containing C-terminal His6-tags, and caspase-8 containing an N-terminal His6-tag were purified as described previously (Stennicke, H. R. & Salvesen, G. S. (I1997) J. Biol. Chem. 272, 25719-25723; Stennicke, H., et al., (1998) J. Biol. Chem. 273, 27084-27090; Stennicke, H., et al., (1999) J. Biol. Chem. 274, 8359-8362). Caspase-9 lacking the CARD domain (ΔCARD-caspase-9) was constructed by truncating the cDNA and introducing a start codon substituting Val139. The resulting cDNA was subcloned into pET-23b and expressed in BL21 (DE3), yielding fully processed enzyme when cells were induced using 0.2 mM IPTG at OD600=0.6 for 4 hrs (Stennicke, H., Deveraux, Q., Humike, E., Reed, J., Dixit, V. & Salvesen, G. (1999) J. Biol. Chem. 274, 8359-8362). All expressed caspases were purified by Ni-chelation affinity-chromatography, as described (Stennicke, H., et al., (1999) J. Biol. Chem. 274, 8359-8362; Stennicke, H. R. & Salvesen, G. S. (1997) J. Biol. Chem. 272, 25719-25723; Stennicke, H., et al., (1998) supra). Concentrations of purified enzymes were determined from absorbance at 280 nm based on the molar absorption coefficients: caspase-3 (A280=26,000M−1 cm−1), caspase-7 (A280=24,500 M−1 cm−1), caspase-9 (A280=30,010M−1 cm−1).
(§2) Caspase activity was assayed by release of 7-amino-4-trifluoromethyl-coumarin (AFC) from Ac-DEVD or Ac-LEHD-containing synthetic peptides (Calbiochem) using continuous-reading instuments as described (Quan, L. T. et al., (1995) J. Biol. Chem. 270:10377-10379).
To directly examine the possibility that SfIAP and CpLAP inhibit caspase-9, enzyme inhibition assays were performed using bacteria-produced recombinant active caspase-9, recombinant-purified SfIAP and CpIAP, and Ac-LEHD-AFC as a caspase-9 substrate.

[2] = system: caspase-3 and similar DEVD-cleaving proteases in cell extracts treated with cyto c; assay: Cell-free caspase activation induced by cyto c in HEK 293 cytosolic extracts; type: biochemical, human; details: for suppression of pro-caspase-3 processing (immunoblot): cyto c-treated extracts; for effect on hydrolysis of Ac-DEVD-AFC (caspase activity): recombinant protein, cell extracts treated with cyto c
Protocol: as §2
(§3) Cytosolic extracts were prepared as described (Deveraux, Q., Takahashi, R., Salvesen, G. S. & Reed, J. C. (1997) Nature 388, 300-303) using human embryonic kidney (HEK) 293 cells. Cells were washed with ice-cold buffer A (20 mM HEPES pH 7.5, 10 mM KCl, 1.5 mM MgCl2, 1 mM EDTA and 1 mM DTT), suspended in 1 volume of buffer A, incubated on ice for 20 mins, and then disrupted by 15 passages through a 26-gauge needle. Cell extracts were purified by centrifugation at 15000 g for 12 mins and supernatants were stored at −80 ° C. For initiating caspase activation, either 100 nM of purified recombinant caspase-8 or 1 μM horse heart cytochrome c (Sigma) together with 1 mM dATP was added to extracts (Deveraux, Q. L., et al., (1998) EMBO J. 17, 2215-2223).
(§4) To further explore the mechanisms by which SfIAP and CpIAP inhibit mammalian apoptosis, a cell-free system in which exogenously added active caspase-8 or cyto c induces activation of caspase-3 and similar proteases, as measured by hydrolysis of Ac-DEVD-AFC (Quan, L. T. et al., (1995) J. Biol. Chem. 270, 10377-10379) was used. Caspase-8 and cyto c trigger the same apoptosis pathways in extracts which are activated by Fas and Bax in intact cells.

[3] = biological target: T1, caspase-3 (Homo sapiens, UniProt P42574); assay: Binding to recombinant purified caspase-3; parameters: species or system mammalian
T1 construct: His6 (C); made in house
T1 sequence (P42574 29-175 limits assumed): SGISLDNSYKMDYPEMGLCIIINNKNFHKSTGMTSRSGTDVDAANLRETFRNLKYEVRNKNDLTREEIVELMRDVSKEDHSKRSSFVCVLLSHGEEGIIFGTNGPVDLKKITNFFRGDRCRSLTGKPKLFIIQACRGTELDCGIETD
T1 sequence (P42574 176-277 limits assumed): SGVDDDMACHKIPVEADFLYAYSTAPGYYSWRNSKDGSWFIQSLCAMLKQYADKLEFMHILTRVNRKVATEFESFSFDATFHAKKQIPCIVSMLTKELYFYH
Protocol: as §1, with “All expressed caspases were purified by Ni-chelation affinity-chromatography, as described (Stennicke, H., et al., (1999) J. Biol. Chem. 274, 8359-8362; Stennicke, H. R. & Salvesen, G. S. (1997) J. Biol. Chem. 272, 25719-25723; Stennicke, H., et al., (1998) supra).” left out, “cm−1). […]” for “cm−1).”

[4] = system: DEVD-cleaving proteases in cell extracts treated with caspase-8; assay: Cell-free caspase activation induced by active caspase-8 in HEK 293 cytosolic extracts; type: biochemical, human; details: recombinant protein
Protocol: as §2, §3
as §4, with “Caspase-8 and cyto c trigger the same apoptosis pathways in extracts which are activated by Fas and Bax in intact cells.” left out

[5] = biological target: T1, caspase-3; assay: Inhibition of recombinant purified caspase-3; type: biochemical, mammalian; details: in vitro
Protocol: as §1, with “The resulting cDNA was subcloned into pET-23b and expressed in BL21 (DE3), yielding fully processed enzyme when cells were induced using 0.2 mM IPTG at OD600=0.6 for 4 hrs (Stennicke, H., Deveraux, Q., Humike, E., Reed, J., Dixit, V. & Salvesen, G. (1999) J. Biol. Chem. 274, 8359-8362). All expressed caspases were purified by Ni-chelation affinity-chromatography, as described (Stennicke, H., et al., (1999) J. Biol. Chem. 274, 8359-8362; Stennicke, H. R. & Salvesen, G. S. (1997) J. Biol. Chem. 272, 25719-25723; Stennicke, H., et al., (1998) supra).” left out
as §2

B1: SfIAP: cellular IAP cloned from Spodoptera frugiperda, protein of 377 amino acids (SEQ ID NO:3); GST-fusion when recombinant (protein, listed as Spodoptera frugiperda)
chain: MWSCSLPCWNTKKSGLQMDITKVASNGSSSTLTLFKSGSLEAKIRPLAPLMLPTPSYDSNAGSPSLSPSTPCSSSSFSIDKTDNHDTFGFSADTVDMRKEDERMKTFEKWPVSFLSGEQLARNGFYYLGRRDEARCAFCKVEIMRWVEGDDPAKDHQRWAPQCPFVRKLNGTAAADTGSSGQDECGARAAPSGTSPPRMAGPVHPRYASEAARLRSFKDWPRCMRQKPEELAEAGFFYTGQGDKTKCFYCDGGLKDWENHDVPWEQHARWFDRCAYVQLVKGREYVQKVISEACEVSASEAERDVAPARTAEPSPPAEAPENSVDDSKLCKICYAEERNVCFVPCGHVVACAKCALAADKCPMCRRTFQNAVRLYFS
modifications: GST fusion when recombinant; fall armyworm inhibitor of apoptosis protein (SfIAP)
[1]
  inhibition of recombinant active caspase-9: inhibited recombinant active caspase-9 in a concentration-dependent manner; also recorded: direct inhibitors of mammalian caspase-9
  molar-excess relative to caspase-9 which produced ~50% inhibition of protease activity: 8 fold
[2]
  suppression of pro-caspase-3 processing (immunoblot): suppressed the processing of pro-caspase-3 in cyto c-treated
  effect on hydrolysis of Ac-DEVD-AFC (caspase activity): completely blocked the hydrolysis of Ac-DEVD-AFC; also recorded: able to inhibit cyto c-induced activation of DEVD-cleaving caspases
[3]
  binding to caspase-3: neither bound
[4]
  effect on DEVD-cleaving proteases: no effect on DEVD-cleaving proteases
[5]
  inhibition of caspase-3: nor inhibited

B2: CpIAP: baculoviral (CpGV) inhibitor of apoptosis protein; complete ORF expressed myc-tagged or as GST-fusion (protein)
chain: MSDLRLEEVRLNTFEKWPVSFLSPETMAKNGFYYLGRSDEVRCAFCKVEIMRWKEGEDPAADHKKWAPQCPFVKGIDVCGSIVTTNNIQNTTTHDTIIGPAHPKYAHEAARVKSFHNWPRCMKQRPEQMADAGFFYTGYGDNTKCFYCDGGLKDWEPEDVPWEQHVRWFDRCAYVQLVKGRDYVQKVITEACVLPGENTTVSTAAPVSEPIPETKIEKEPQVEDSKLCKICYVEECIVCFVPCGHVVACAKCALSVDKCPMCRKIVTSVLKVYFS
modifications: left off: a dimerising Fc or GST
notes: complete ORF expressed myc-tagged or as GST-fusion
[1]
  inhibition of recombinant active caspase-9: inhibited recombinant active caspase-9 in a concentration-dependent manner; also recorded: direct inhibitors of mammalian caspase-9
  molar-excess relative to caspase-9 which produced ~50% inhibition of protease activity: 12 fold
[2]
  suppression of pro-caspase-3 processing (immunoblot): suppressed the processing of pro-caspase-3 in cyto c-treated
  effect on hydrolysis of Ac-DEVD-AFC (caspase activity): completely blocked the hydrolysis of Ac-DEVD-AFC
[3]
  binding to caspase-3: neither bound
[4]
  effect on DEVD-cleaving proteases: no effect on DEVD-cleaving proteases
[5]
  inhibition of caspase-3: nor inhibited
